The target in this experiment is His6-tagged monovalent streptavidin (UniProt P22629). Briefly: pull-down.

The substance “C-terminal AviTag Dicer, biotinylated (from UniProt Q9UPY3 1-1922) (enzyme)” displayed a percent of the Dicer sample retained on the Ni column with His6-streptavidin of 60%.

The values are drawn from PMC3535077.
